Assay results from the NTF2 design screens of Basanta et al. (2020).

Experiment: protease stability score; higher = more stable; yeast display proteolysis, trypsin and chymotrypsin;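 also: log10 excess protease needed over predicted unfolded state with 0 meaning unfolded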

| Sequence | protease stability score |
| --- | --- |
| DDHAVRLLNDIVRALNSGDEQKVADNADPNVRIEYGDSVITGRERLMEEIQKRRKELRFEVQVDRVREKPNHVVADVQLHFNVNGQPRNMKVEVRATWTNGKLKHMHIKMDEEQVRQLKR | 1.1 |
| DDHAVRMAKTYQKAIQHNDPDKMVDLVDPNAKIHIGDKDIQGREELRRWVKHRIDDINIIIERVSATDKGDKAIVTVDLVENENGRPHNVRFEVTFDFKNGRAQRVTVQESR | -0.088 |
| DDHAVSFVEEMLRIEKTGNHQQLENKADPNAEAEYGDKTYHGMEDFARELVRQLREWRLDYKSIDVQAHNGRAEVDVDVLVDIDGEPVRFRVTIVFQQHNGRLKNQSMRMSTDQLRKQQR | 0.121 |
| DDHDAKRAAKHVENGDPEQITNLFDEDARVHIGDFRIHGREDAKKWADHYRDQVDHLEYEDYRISGDTVVIVFQINVNGKRVRLRLEFRVHNGRIKEMTVEFTSEDDEKRVLKIMS | 0.531 |
| DDHDRLRKFFETLLKNYQHNNEEHATKMADKDARFDVGDKTVNGNKQNAKEMAERVRESDHYHAKIQSYRVEGDKAHFQFVASVVHNGRERHFKVQMELKLHNGSLKIVRLRNS | 0.966 |
| DDHDRQKLSEWYKNYESGDPDKLVDMADPNARFQYGDKHVRGREQIHRQWRKELTEQRFTVVKMSASDHNGVIDMKFTNEVEHNGRPDRRKFSFTFRVRNGQAQEFDLQTTK | 0.014 |
| DDHEEASELIRDLNEAWKEGDPDRASKNFDPNARIEVGDRTFRGQEQVKRMADELKEKYDEFTVDIKRLSLHNGSITVNARVVYHNNGRRHDRTYVVILHKHNGRIKIKNMHEQ | 0.331 |
| DDHEKANKVVSKLVEANRTGDEKKFVDMADPNVQLNIGDQRVHGREQAEKFARDFHTRFDHLDVKIKDVDVQGEKLELDVKMKVHFDGRTHEINMRLELQRNNGRVKLVRLHIP | 0.097 |
| DDHEQRSLQELVKKNDEEKFAEQADKDVKVDVGDSRIHGREEWRKFVKRLKDRADHIEIHSVKADGEKLEVHREMTVDGRRVVYYVRYEVHNGRIKSISLQARTEDDQRKLQHVLS | 0.919 |
| DDHETAKQIMETWKQIVEDGDEHQAQRMADPNVHANIGDHTVHGKEEFKKMLRTWRDRVDRIEVTFRHIEVTGNKLIVVVDVRLDVNGKEIHVHMVLNAQKQGDEAKVETVVVE | 1.24 |
| DDHEVAKQNMRDLLTILNTGDPDKAEEMADKDVKIDVGDKRYHGQTKMREWIEELRKRYDHIHADVKSVEVHNGQVRADIEMVFNHNGREETVKVDVKAELDGDKVKIENLVLR | 1.3 |
| DDHKAQRAVDIAKNWLTGNEEELQKQASEEVRFDYGDKTVHGMTEARTQAKRFHERMRADAKVHSFDVTGDKAVVNMVFEQEHNGRPTNRRYRVILDLHNGKVKEVQIDDDG | -0.069 |
| DDHKLAEDIIQEFHEAMERGDPDQIQKLADKDVTINYGDKRIRGRETATRFWREVMDRIDHVEVTIRELRVKGDKIQFVVLINQNHNGQTTNRHVEASVEVHGDKYRNKSFQFQ | 0.35 |
| DDHKNRERAKEIAKQFQHNNPEDLRKMFDKDARLDLGSQQYHGREDVNRALSHLSKRIDHYEIKDIKVKGDNIDIQAVVTVNGRRYSLKIILRFSNGKAKEVHFHVS | 0.997 |
| DDHKVEHVNRLFETNNPDKLAKNVDPNADNQVGDKRYHGRQKIHTFLKNMYTRVDHVDIHRISVNGNRLQIDATYDIDGRRFYADMRFRLHNGRIKEVRVRFTNEEQDKVVKEAVK | 0.985 |
| DDHLRQVMEELKKAEDTGNPDRYVELADEDVEVHVGDTTLKGRTQHREEIKTQKDQSRLSINIQHVDVDGDKVRVQFVFENDHNGKPSTDRQQFVVRAHNGRVKRIENEERR | -0.114 |
| DDHLRREAKKMVKNYVKGDPDKVMEYVDPNATVNVGDKNIRGRESVREWVKTQKDQMRIQLTSMRVDASNGRVKISLDFRLNDNGKPDRVTVDIKLNMRNGRVQHVNIQTHK | 0.279 |
| DDHNARSALTIAFTAIRQGDEQKIRELMDKHVDVHVGDEVVHGRDQVATRLRKLKERVDHIQVKSMSVQGDTLDLNIIFRINGKDLEIKFDIRFRNGRVESMTVRVTDEKKYKDIHQ | 0.475 |
| DDHNIQRLKQFLDDWERGDPDKLKDLVDPNVEFRIGEREVHGMDHWATQLTEERRDQRFQLKDMRVQERPGRVEVRLDYEQDHNGKPERQIVKFVAQATNGELKWVNWTRDS | -0.017 |
| DDHNRAENFLKEVMRAMKNNDPQTLKELADPNVTVEVGDKEIHGQEEFHKWAETLNHNVDSLDIQFKEIRLRPGRAEAIVLITEDHNGRKDRKELNMVARVKGDDIHVVSMHQK | 0.828 |
| DDHNVRLAKKFREAYETGDEETVKSMADPNAHYHVGDKRITGRERQVRKMTRERRDMRVQVESIRYSNRNGRVDVKIVEVRNDNGHPKRMRIVLHVNFQNGKAKEFQIEDQE | 0.226 |
| DDHNVRVMREIQKAIEKNDEKRFKELVDPNVRVRIGDNLIHGRDNVAKELKREMDHMRKNIRSMSIDDEGDHVVINIEYEQNENGHPDTNRVQVSAELHNGKLKEMHISSRQ | 1.02 |
| DDHRAHQMAEFVIDAIRTGDPDKFVNQADENVRVVIGDKQVQGHEEAREALKSLKDQADHVSLTDFRVHGDKVEVVFEARVNGVDLVMKVYARIHNGHLVMMSIDVTDPRKQKKADS | 1.11 |
| DDHRAKQAVKAWTDNNPDNLRELFDKNVRVEIGEFTLHGREDAQSMVQRLHSRADHVEYKDIKVSNGRINIDVVYMVDGHRVRATIHLTIENGRLKSMEVRFTSEEDQKKAKRAFE | 0.09 |
| DDHREEQMNRVAETGNFKHLASQLDKDATAFYGDKTVEGREHIQENLNRLHSHIDHIEYKKVEVKNGKVDVDFTAVINGTTFRAQMRLVVHNGRIKTISMRARDEKDKKLIHEWLS | 0.83 |

| Sequence | protease stability score |
| --- | --- |
| DDHSSARKFADEFREMMKTGDSTKADELFDPNVRVEVGDKRYHGREQAVDWIRHLVDRYDHIEIRIDHITVRGDRISIVFTVHYEKNGETTYDRYVMVAVDRNGRAQIKMLRKG | 2.51 |
| DDHVLREVMKSWKDNDWKTLQDQVDPNARMKVGDNKVSGREQIEDLLQHLQDRIDHVEIKSMQHQGDKANFRFQFVVNGQRVDVVARVKAHNGKIQEWQVEVRNDELKEQLERAQK | 0.628 |
| DDHVNREINRLMEKNDEQKFVDQADENASMDVGNKRYHGRDAAIKAARAWRKAADHVRIKRFEYSNGKIIIVVVVQFNGHRYDVTIDIVHHNGKVKEFVVRFTDPEQERDFRDWLG | 0.509 |
| DDKAADDARRALEQLNTGNEERAATYMDPNVSVRIGDKSVHGREEIQRSEERKRRRLEVQYKDYRVSVENGEFTASYDYTNHHNGRPQRVKVEVHISADNGKIKSVQQHEDK | 0.213 |
| DDKDADHVQRALRNLERGDPEKADTMFDPNAHVRIGDKEIHGREQLNHWVERVHTEMRQRWDFKDVNEHENHVQIDVSITTEKNGQPRSKHVKLNARVNNGTVTSVEQQDDG | -0.164 |
| DDKDAKRLLTLWHQIEEGNPEEVQKMMDENVHVSIGDKEVHGREEDARQRKEEVDSMRVSLKIDHYSDNNGRIVVDATQENETNGKPSTKRFVIEARMDNGTLKRLQIEDDK | 0.097 |
| DDKDIQEIAHEINHAWEEGDSKRFADLLSENARVDVGDKDYEGREFNKKWMKDIRDRVDHLEIDHVSAKGNTVEVTMVMNINGRNATVVVEYTFHNGQVRHAQLKFTSEEDKRKFHG | 0.453 |
| DDKDLKDVAEKVMHAVQNGDPHEARKMFDKDARIIVGDTEVHGRSNIMHLMTEFRKRVDHAEIKDLTVNGEDVRIDMVLDINGKKHRRTWEVRVSNGRARHAHLDPKDLERQSK | 0.481 |
| DDKDLRRVADVMETNDPDRLADLVDENARFIYGDKTYKGEKEATKVWETLYHQVDHKQIHTWDVRGDKLSVKMEMVVNGHDIQVHVRVDVRNGRIKQVELRATNEDDQRFIKRIWG | 0.218 |
| DDKDMEQIKRLIEQLLTGDPDSAKRNFDENARVTIGDKTIEGRDDMRRWVDTVHKHAQLEITHMTVKVHGDKVKVNMDARRTHNGRPERATFKMDVELQNGKVKNQSIEIRK | 0.223 |
| DDKDQHEEVEKFARNVVSGNSDELRKQMDKDVRANVGDKTLRGREEVADFWKHMRDRIDHAEIKEIRFHNGEARIVMQFVHNGRTKQINIVMEFHDGHVKRLRVEDG | 2.73 |
| DDKDRRRVAEEVVRAFVQNDPDRLVELADEDARVHYGDRELHGREKARHMLRKFKEQVDTATYQDFNVHGDKVDIKLTAHFNGRTHTQTVIVVIHNGRIKFIEIRSS | 1.22 |
| DDKDVEKAVRVMQTNDPDKYERMLDEDVSMVVGDQTYHGRETVNKVYKHYLERVDHIKITRYTIRNGVATVRYVVEWNGKSADVVVHVEVHNGRAKRFEYDVRDSEDKKNMEEMIK | 0.358 |
| DDKEAHKRARQLVRIVQTGNESDVRKLFDKNARVVIGDKTFHGRENVQKAVREMRERVDHVQVHRVRAQGNKVRALVQYDINGKQEHYNFDMTFHNGRAKSMVVKES | 0.812 |
| DDKEARKFAKDYVDAMKTGDEKRIEEMVDPNVSFQIGDQTYHGREQLKQALRSRRHHADHVQVDHVEAQGDKIDIDVQFNINGRDDKVKIKIRVHNGRIKEVVIEKK | 0.99 |
| DDKEEAESIAKTLQKILDTGNEEDYLNMADEDVEINIGDKHYRGREEFLKWVQKMTRQVDHLRIDVKSVEVSGDKAHIQYHLELNHDGKNETHKLVMVARKSNGRLTIKKITHQ | 1.19 |
| DDKEKAEKFLTKWVEAIKTGNEEQLNELADPNVRFKYGDRVIHGREQQAKHNKELRERADRMEFRVDDVDIRPGKVVVHARYTVNINGKEETHQYTATADVKNGRLQITEQQNS | -0.092 |
| DDKERDHLRKLMEEGDFTEIAENADPNAKFVIGDKEIHGREQFQTVAKRRQERVDHFDVKRVSVSGNKVRATMVMVVDGEKIHFTVIIEIDNGRVKSVRLQYRDETVKRQIEEAMS | -0.213 |
| DDKEVRRNAEIALKALRTGDEDDAMEQADEDAKMVIGDKEVHGREKLREAVKDFKEEADHVQVRHFEVQNGRVNAEMEVDVNGQKQIYVMHVEVHNGKIKEINIQHK | 0.787 |
| DDKHAEEVAELMTRNNFKQLAHQADPNVKIVVGEKKWHGREQMRTFMKILTKRVDHLNIQSYDVDNGRVKIDYVVNIDGQEIHVRVEIEFKNGRIQRYVLRATSDENQKELNKALS | 0.08 |
| DDKHIQTQAERIAKALQTGDPDKFKNEMRKDVQVDVGDKRLHGREEVAKWMEDKHKRADRITYDSVEASGDKITMTVVIQINGRKKHFQFEATQSNGKIVHARERDQ | -0.393 |
| DDKHKVEQLLRRADDALRTNDERKYIEMVDKDVRITVGDKQIHGKDEAVKFLRTLHNTYDHVQIRVESIENDGEKFKVIVQITAKHNGKETSHTLSFDAQRHNGQVRVKHASMG | 1.21 |
| DDKKAQDFARKFADNLRTGNERQWEKMFDENVRIKYGDKTLHGREVARKEARTFHEQVDHMEVRSITAQGNQLVIMFEVKHNGRTDRMVWRAKVENGKIQHQTVTSQ | -0.084 |
| DDKKQQNMAKHFADAIRRGDPKTFSDLADPNVTAQYGDKSIHGKDEMREFWKQYHDRVDSVDVEKFSVRGDKIDIKMRAVVDGKDRVLDLDIQLHNGRATHIKVNPDQVREMDK | 1.38 |
| DDKKRVTQVFREWREALQTGNEEELHKQADKDVKFDVGESEFHGREKFVKHVQERLTQVDHLDIKMHSLKVDNGKADVSVIYRQNHNGKEDETTAVIIMTLSNGHAKIDTVKYG | -0.195 |
